Legend:
bovine thrombin (bovine) [1] = target: bovine thrombin (bovine) (UniProt P00735)
bovine thrombin (bovine) [2] = target: bovine thrombin (bovine) (UniProt P00735); details: scale: relative activity
DIP-thrombin agarose = experiment: chromatography on DIP-thrombin agarose
human fibrinogen (human) = human fibrinogen (human) (UniProt P02671)

Chain of recombinant human urine thrombomodulin ruTM-Ala (receptor) (chain): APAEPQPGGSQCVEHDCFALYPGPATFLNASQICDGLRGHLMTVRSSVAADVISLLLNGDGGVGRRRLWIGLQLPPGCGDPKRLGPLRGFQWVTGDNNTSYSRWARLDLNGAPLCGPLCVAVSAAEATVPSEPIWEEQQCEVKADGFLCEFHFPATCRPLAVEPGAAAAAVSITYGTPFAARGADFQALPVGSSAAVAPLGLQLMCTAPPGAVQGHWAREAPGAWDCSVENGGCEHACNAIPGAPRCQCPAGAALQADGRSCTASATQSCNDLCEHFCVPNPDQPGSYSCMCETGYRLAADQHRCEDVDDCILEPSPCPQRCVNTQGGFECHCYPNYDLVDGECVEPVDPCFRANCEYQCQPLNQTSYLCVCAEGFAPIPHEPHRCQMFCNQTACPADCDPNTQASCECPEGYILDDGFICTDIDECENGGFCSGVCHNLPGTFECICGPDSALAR
Chain of pKCR-TM-Val-originated recombinant human urine thrombomodulin (receptor) (chain): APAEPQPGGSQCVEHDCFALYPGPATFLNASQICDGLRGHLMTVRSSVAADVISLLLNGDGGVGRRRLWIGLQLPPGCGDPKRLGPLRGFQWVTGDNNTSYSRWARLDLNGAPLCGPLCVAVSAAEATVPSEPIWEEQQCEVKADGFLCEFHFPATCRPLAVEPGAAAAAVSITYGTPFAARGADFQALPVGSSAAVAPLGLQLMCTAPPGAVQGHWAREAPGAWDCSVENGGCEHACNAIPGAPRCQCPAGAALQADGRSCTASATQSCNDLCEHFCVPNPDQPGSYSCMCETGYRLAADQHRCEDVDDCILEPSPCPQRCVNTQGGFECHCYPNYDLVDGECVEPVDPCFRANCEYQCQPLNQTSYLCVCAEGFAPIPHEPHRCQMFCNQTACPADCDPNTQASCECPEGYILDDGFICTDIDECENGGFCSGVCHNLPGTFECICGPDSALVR
Chain of mutation type recombinant human urine thrombomodulin in which 10 amino acid residues are deleted from the C-terminus of the human urine thrombomodulin (receptor) (chain): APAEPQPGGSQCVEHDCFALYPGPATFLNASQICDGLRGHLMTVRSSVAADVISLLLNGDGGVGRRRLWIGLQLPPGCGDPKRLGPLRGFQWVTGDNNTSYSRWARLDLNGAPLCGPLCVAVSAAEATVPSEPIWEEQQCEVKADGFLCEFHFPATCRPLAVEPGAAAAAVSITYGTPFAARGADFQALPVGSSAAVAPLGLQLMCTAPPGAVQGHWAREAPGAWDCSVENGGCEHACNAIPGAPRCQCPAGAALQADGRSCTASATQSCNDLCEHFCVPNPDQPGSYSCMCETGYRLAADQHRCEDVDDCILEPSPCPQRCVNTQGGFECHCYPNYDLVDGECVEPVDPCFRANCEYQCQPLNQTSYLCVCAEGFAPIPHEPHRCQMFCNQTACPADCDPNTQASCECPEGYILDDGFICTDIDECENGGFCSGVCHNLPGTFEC

Substance | Coagulation time (bovine thrombin (bovine) [1]) | Protein C activating ability (relative activity) (bovine thrombin (bovine) [2]) | adsorbed by thrombin (DIP-thrombin agarose) | Coagulation time (human fibrinogen (human))
recombinant human urine thrombomodulin ruTM-Ala (receptor) | > 500 s | 3.8 | 100% | –
human placenta thrombomodulin (from UniProt P07204) (receptor) | – | 1 | – | –
mutation type recombinant human urine thrombomodulin in which 10 amino acid residues are deleted from the C-terminus of the human urine thrombomodulin (receptor) | – | 4.1 | – | –
bovine thrombin (from UniProt P00735) (enzyme) | – | – | – | 37.8 s
pKCR-TM-Val-originated recombinant human urine thrombomodulin (receptor) | > 500 s | – | 100% | –

From patent US5695964
